According to US20230031280A1, “GLP-2 FUSION POLYPEPTIDES AND USES FOR TREATING AND PREVENTING GASTROINTESTINAL CONDITIONS” (SHIRE-NPS PHARMACEUTICALS, INC., priority 2017, published 2023):
pKd: −log10 of the molar value.

Columns and labels:
[1] = target: T1, hFcRn (extracellular domain of the FcRN) (Homo sapiens, UniProt P55899); assay: FcRn binding by surface plasmon resonance (Biacore)
T1 construct: made in house
Excerpt: Binding to the Fc neonatal receptor (FcRN) allows for recycling of the molecules and leads to an extended in vivo serum half-life of the Fc fusion proteins. Recycling occurs as the molecules are passively taken into the cells and the pH of the endosomes is lower. That leads to binding of the Fc portion of the molecule to the FcRN. When the FcRN recycles back to the surface of the cell, the pH is then neutral and the protein is released back into the serum.
Binding to the extracellular domain of the FcRN was measured by surface plasmon resonance (SPR) using a Biacore system. Direct immobilization with FcRn was achieved via amine coupling of a CM5 chip with FcRn under the following conditions: • i) hFcRn (expressed and purified in house) is diluted in Acetate buffer pH 5.0 to 5 μg/mL. • ii) Immobilize 5 μg/mL of FcRn with target of 500 RU on CM5 chip in PBS pH 7.0 • iii) Final response 454 RU • iv) Running buffer: PBS-P+, pHed to 5.5
The kinetic binding study was done using the following protocol. Samples were diluted in PBS-P+ to 50, 25, 12.5, 6.25, 3.125, 1.56, 0.78, 0.39, 0 nM. The parameters were set as follows: • i) Association and Dissociation 300 s at Flow rate 30 μL/min • ii) Regeneration with 25 mM Tris, 150 mM NaCl pH 8.0 40 s at 60 μL/min
A measurement of the binding of the GLP-2 peptibodies to the Fc neonatal receptor (FcRN) was undertaken at pH 5.5 and pH 7.4.

[2] = target: T2, human GLP-2R (Homo sapiens, UniProt O95838); assay: cAMP Hunter eXpress GLP2R CHO-K1 GPCR assay; assay type: cell-based
T2 construct: host or cells: CHO-K1
T2 sequence (O95838 1-553): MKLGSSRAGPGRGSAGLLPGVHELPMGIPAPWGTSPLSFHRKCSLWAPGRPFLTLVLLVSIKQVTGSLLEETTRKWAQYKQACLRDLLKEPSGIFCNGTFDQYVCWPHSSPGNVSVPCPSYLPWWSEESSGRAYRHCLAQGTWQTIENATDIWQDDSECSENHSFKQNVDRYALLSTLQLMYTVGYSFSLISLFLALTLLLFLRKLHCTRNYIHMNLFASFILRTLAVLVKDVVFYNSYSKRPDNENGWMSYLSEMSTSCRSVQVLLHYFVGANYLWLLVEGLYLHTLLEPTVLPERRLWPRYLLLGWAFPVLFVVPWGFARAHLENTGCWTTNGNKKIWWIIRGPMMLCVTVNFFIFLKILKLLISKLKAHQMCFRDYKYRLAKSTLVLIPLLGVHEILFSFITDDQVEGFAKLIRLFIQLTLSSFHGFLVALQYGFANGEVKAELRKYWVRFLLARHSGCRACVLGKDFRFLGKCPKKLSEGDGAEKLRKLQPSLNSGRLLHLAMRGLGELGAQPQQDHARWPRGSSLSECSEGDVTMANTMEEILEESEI
Experimental: The cAMP Hunter™ assay is based on enzyme fragment complementation (EFC). In EFC assay, the enzyme donor is fused to cAMP. Increased intracellular cAMP due to GLP2R activation competes with ED-cAMP for antibody. Unbound ED-cAMP complements the enzyme acceptor to form active beta galactosidase, which subsequently produces a luminescent signal.
The CHO-K1 cell line used is overexpressing human GLP-2R (Genbank accession number NM004246.1). […] Their activities were assayed via measurement of the concentration of cAMP in the media.

[3] = Rat pharmacokinetics, subcutaneous dosing; assay type: in vivo, Sprague-Dawley rats; conditions: single dose 1 mg/ml
Experimental: In the rat, four pharmacokinetic parameters were measured for Gattex® (a GLP-2 peptide having the A2G mutation): CL, Vc, Vt and Q. The same pharmacokinetic parameters were also measured for GLP-2 peptibodies A, B, E, J, K, L, M, O and P. The data is shown in Table 5. Male Sprague-Dawley rats (3 animals per group) were injected subcutaneously into the intra-scapular region of the animal. A singles dose of test article was injected at a dose level of 1 mg/ml. The test articles were formulated in PBS pH 7.4 at a concentration of Blood samples were taken 0.083, 0.167, 0.33, 0.5, 1, 2, 6, 24, 48, 72, 120, 168, 240, and 336 hours post dose. Blood samples were collected into heparinized tubes and centrifuged for 5 minutes at 2000 xg within 10 minutes of collection. 100 μL of plasma were transferred to a […] Eppendorf tube containing 2 μL of 50 mM PMSF. After mixing the plasma samples were frozen at −80° C. until analysis. Meso Scale Discovery (MSD) ELISA was undertaken to assay for the concentration of the GLP-2 peptibodies.
A sandwich immunoassay was developed using either an anti-Human IgG1 Fc antibody or an anti-human albumin antibody for capture of the peptibody and a sulfotag labeled anti GLP-2 antibody for detection.

[4] = Cynomolgus monkey pharmacokinetic study; assay type: in vivo, cynomolgus monkeys; conditions: 0.75 mg/kg
Experimental: Pharmacokinetics studies of teduglutide, GLP-2 Peptibody B and GLP-2 Peptibody K were formed in cynomolgus monkeys with citrulline assayed as a biomarker of GLP-2 concentration. In the study, 12.5 nmol/kg teduglutide was administered subcutaneously to a group of 6 male cynomolgus monkeys at day 1. Then for one set of 2 monkeys, 25 nmol/kg GLP-2 Peptibody B was administered intravenously at day 7, day 21, day 28, day 35, and day 42. For another set of 3 monkeys, 25 nmol/kg GLP-2 Peptibody B was administered subcutaneously at day 7, day 21, day 28, day 35, and day 42. For another set of monkeys, 5 nmol/kg GLP-2 Peptibody K was administered intravenously (2 monkeys) and subcutaneously (3 monkeys) at day 7, day 21, day 28, day 35, and day 42. For another set of monkeys, 25 nmol/kg GLP-2 Peptibody K was administered subcutaneously (3 monkeys) and intravenously (2 monkeys) at day 7, day 21, day 28, day 35, and day 42.

T1 sequence (P55899 24-297 limits assumed): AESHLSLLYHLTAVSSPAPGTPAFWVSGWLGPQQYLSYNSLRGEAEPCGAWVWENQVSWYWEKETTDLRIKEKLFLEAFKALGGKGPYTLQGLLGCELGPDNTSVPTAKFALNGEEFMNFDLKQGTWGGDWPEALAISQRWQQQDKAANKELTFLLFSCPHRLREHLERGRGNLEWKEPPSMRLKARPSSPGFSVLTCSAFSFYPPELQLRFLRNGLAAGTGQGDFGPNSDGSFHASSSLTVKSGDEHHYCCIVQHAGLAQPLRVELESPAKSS
T1 sequence (P61769 21-119 partner): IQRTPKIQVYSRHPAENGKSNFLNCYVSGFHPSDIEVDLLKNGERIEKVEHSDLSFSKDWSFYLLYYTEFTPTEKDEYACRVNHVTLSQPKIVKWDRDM

GLP-2 peptibody K: GLP-2[A2G]-GGGGSGGGGSGGGGS linker-IgG1 Fc (LALA) with C-terminal lysine; SEQ ID NO: 10
pKd ([1]; pH 5.5): 8.71 | FcRN KD at pH 7.4 ([1]; pH 7.4): No binding in range tested. | reduction of activity vs GLP-2[A2G] [2]: about five-fold | CL [3]: 2.83 mL/h/kg | Vc [3]: 0.114 L/kg | ka [3]: K (0.62 ka/day, | CL ([4]; MDPK, intravenous): 0.804 mL/h/kg | Q ([4]; MDPK, intravenous): 1.12 mL/h/kg | Vc ([4]; MDPK, intravenous): 0.0365 L/kg | Vt ([4]; MDPK, intravenous): 0.0339 L/kg | CL/F ([4]; MDPK, subcutaneous): 1.35 mL/h/kg | Vc ([4]; MDPK, subcutaneous): 0.111 L/kg | association constant (ka) ([4]; MDPK, subcutaneous): 1.70 day⁻¹ | CL ([4]; SDPK, intravenous): 0.717 mL/h/kg | Q ([4]; SDPK, intravenous): 1.21 mL/h/kg | Vc ([4]; SDPK, intravenous): 0.0323 L/kg | Vt ([4]; SDPK, intravenous): 0.0329 L/kg | CL/F ([4]; SDPK, subcutaneous): 1.37 mL/h/kg | Vc ([4]; SDPK, subcutaneous): 0.107 L/kg | association constant (ka) ([4]; SDPK, subcutaneous): 1.56 day⁻¹
